Laboratory results as given in US20200270325A1 (Merck Sharp & Dohme, published 2020).
Numbered stars: 1 amine (or outer) side, 2 acyl side, 3 side chain; on linkers, the order of the positions; unused ones are H or OH. Square brackets hold non-standard residues; d marks the D form. Side chains are listed from the residue outwards. Ends that are not written are not given here. * marks the point of attachment. Phe(4-CH2NH2) = NCc1ccc(C[C@H](N)C(=O)O)cc1; C18 diacid = O=C(O)CCCCCCCCCCCCCCCCC(=O)*; αMeW = C[C@](N)(Cc1c[nH]c2ccccc12)C(=O)O; C16 diacid = O=C(O)CCCCCCCCCCCCCCC(=O)*; γGlu = O=C(O)[C@H](CCC(=O)[*:2])N[*:1]; Met(O2) = CS(=O)(=O)CC[C@H](N)C(=O)O; αMeF = C[C@](N)(Cc1ccccc1)C(=O)O; αMeD = C[C@](N)(CC(=O)O)C(=O)O; AEEA = NCCOCCOCC(=O)O; Aib = CC(C)(N)C(=O)O; C16 = lipid (C16)

Key:
[1] = target: human GLP-1 receptor (GLP1R) (human, UniProt P43220 24-463); test: cell-based or functional assay
[2] = target: human Glucagon receptor (GCGR) (human, UniProt P47871 26-477); test: cell-based or functional assay
Sequence of human Glucagon receptor (GCGR) (P47871 26-477): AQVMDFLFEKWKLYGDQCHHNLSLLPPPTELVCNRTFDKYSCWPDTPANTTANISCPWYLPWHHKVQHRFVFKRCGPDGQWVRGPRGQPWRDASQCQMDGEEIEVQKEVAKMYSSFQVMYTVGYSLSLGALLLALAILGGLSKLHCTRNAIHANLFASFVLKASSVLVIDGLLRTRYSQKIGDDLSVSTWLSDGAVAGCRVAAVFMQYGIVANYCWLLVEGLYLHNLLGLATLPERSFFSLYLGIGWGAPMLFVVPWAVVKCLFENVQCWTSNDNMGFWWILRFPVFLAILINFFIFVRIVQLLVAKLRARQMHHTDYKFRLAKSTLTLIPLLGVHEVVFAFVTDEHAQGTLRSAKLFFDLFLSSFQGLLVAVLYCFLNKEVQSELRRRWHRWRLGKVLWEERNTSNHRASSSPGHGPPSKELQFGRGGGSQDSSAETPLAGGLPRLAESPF

B1: TP577 (peptide)
peptide: HXQGTFTSDYSKYLDSRAAXDFVQWLXDT
modifications: Aib (U) at 2; K(PEG2PEG2γEC20-OH) at 20; L-methionine sulphone (2) at 27; C-terminal amide
[1]
  GLP1R EC50 human: 1.67 nM
[2]
  GCGR EC50 human: 4.54 nM

B2: TP587 (peptide)
peptide: H[Aib]QGTFTSDYSKYLDERAA[Phe(4-CH2NH2)]([AEEA-AEEA-γGlu-C18 diacid])DFVQWLLKT-NH2
modifications: N-terminus assumed
SMILES: CC(C)C[C@H](NC(=O)[C@H](Cc1ccc(O)cc1)NC(=O)[C@H](CCCCN)NC(=O)[C@H](CO)NC(=O)[C@H](Cc1ccc(O)cc1)NC(=O)[C@H](CC(=O)O)NC(=O)[C@H](CO)NC(=O)[C@@H](NC(=O)[C@H](Cc1ccccc1)NC(=O)[C@@H](NC(=O)CNC(=O)[C@H](CCC(N)=O)NC(=O)C(C)(C)NC(=O)[C@@H](N)Cc1c[nH]cn1)[C@@H](C)O)[C@@H](C)O)C(=O)N[C@@H](CC(=O)O)C(=O)N[C@@H](CCC(=O)O)C(=O)N[C@@H](CCCNC(=N)N)C(=O)N[C@@H](C)C(=O)N[C@@H](C)C(=O)N[C@@H](Cc1ccc(CNC(=O)COCCOCCNC(=O)COCCOCCNC(=O)CC[C@H](NC(=O)CCCCCCCCCCCCCCCCC(=O)O)C(=O)O)cc1)C(=O)N[C@@H](CC(=O)O)C(=O)N[C@@H](Cc1ccccc1)C(=O)N[C@H](C(=O)N[C@@H](CCC(N)=O)C(=O)N[C@@H](Cc1c[nH]c2ccccc12)C(=O)N[C@@H](CC(C)C)C(=O)N[C@@H](CC(C)C)C(=O)N[C@@H](CCCCN)C(=O)N[C@H](C(N)=O)[C@@H](C)O)C(C)C
[1]
  GLP1R EC50 human: 0.41 nM
[2]
  GCGR EC50 human: 2.49 nM

B3: TP630 (peptide)
peptide: H[Aib]QGTFTSDYSKYLDARAAK([AEEA-AEEA-γGlu-C16 diacid])DFVQ[αMeW]L[Met(O2)]DT-NH2
modifications: N-terminus assumed
SMILES: CC(C)C[C@H](NC(=O)[C@H](Cc1ccc(O)cc1)NC(=O)[C@H](CCCCN)NC(=O)[C@H](CO)NC(=O)[C@H](Cc1ccc(O)cc1)NC(=O)[C@H](CC(=O)O)NC(=O)[C@H](CO)NC(=O)[C@@H](NC(=O)[C@H](Cc1ccccc1)NC(=O)[C@@H](NC(=O)CNC(=O)[C@H](CCC(N)=O)NC(=O)C(C)(C)NC(=O)[C@@H](N)Cc1c[nH]cn1)[C@@H](C)O)[C@@H](C)O)C(=O)N[C@@H](CC(=O)O)C(=O)N[C@@H](C)C(=O)N[C@@H](CCCNC(=N)N)C(=O)N[C@@H](C)C(=O)N[C@@H](C)C(=O)N[C@@H](CCCCNC(=O)COCCOCCNC(=O)COCCOCCNC(=O)CC[C@H](NC(=O)CCCCCCCCCCCCCCC(=O)O)C(=O)O)C(=O)N[C@@H](CC(=O)O)C(=O)N[C@@H](Cc1ccccc1)C(=O)N[C@H](C(=O)N[C@@H](CCC(N)=O)C(=O)N[C@@](C)(Cc1c[nH]c2ccccc12)C(=O)N[C@@H](CC(C)C)C(=O)N[C@@H](CCS(C)(=O)=O)C(=O)N[C@@H](CC(=O)O)C(=O)N[C@H](C(N)=O)[C@@H](C)O)C(C)C
[1]
  GLP1R EC50 human: 0.29 nM
[2]
  GCGR EC50 human: 0.89 nM

## H[dS]QGTFTSDYSKYLE[Aib]RAAK([AEEA-AEEA-γGlu-C20‑OH])DFVQWLL[Aib]TK-{γGlu-NH2} [TP579]
[1]
  GLP1R EC50 human: 14.7 nM
[2]
  GCGR EC50 human: > 19.9 nM

## H[Aib]QGTFTSDYSKYLDARAAK([AEEA-AEEA-γGlu-C20‑OH])D[αMeF]VQWL[Met(O2)]DT-NH2 [TP590]
[1]
  GLP1R EC50 human: 1.64 nM
[2]
  GCGR EC50 human: 5.03 nM

## H[Aib]QGTFTSDK([γGlu-γGlu-C16])SKYLDARAAK([AEEA-AEEA-γGlu-C18 diacid])DFVQWL[Met(O2)]DT-NH2 [TP601]
[1]
  GLP1R EC50 human: 8.5 nM
[2]
  GCGR EC50 human: 1.8 nM

## HXQGTFTSDXSKYLDARAAQDFVQWLLDT (D-Ser (s) at 2; Nle(1,2,3-triazole-4-C15) at 10; C-terminal amide) [TP829]
[1]
  GLP1R EC50 human: 0.68 nM
[2]
  GCGR EC50 human: 1.06 nM

## HXQGTFTSDXSKYLDARAAQDFVQWLLDT (D-Ser (s) at 2; Nle(1,2,3-triazole-4-γE-C16) at 10; C-terminal amide) [TP830]
[1]
  GLP1R EC50 human: 0.22 nM
[2]
  GCGR EC50 human: 0.14 nM

## H[Aib]QGTFTSDYSKYLD[Aib]RAAQDFVK([AEEA-AEEA-γGlu-C20‑OH])WL[Met(O2)]DT-NH2 [TP576]
[1]
  GLP1R EC50 human: 1.88 nM
[2]
  GCGR EC50 human: 1.45 nM

## HXQGTFTSDXSKYLDARAAQDFVQWLLDT (D-Ser (s) at 2; Nle(1,2,3-triazole-4-C4-Lys-C16) at 10; C-terminal amide) [TP831]
[1]
  GLP1R EC50 human: 0.08 nM
[2]
  GCGR EC50 human: 0.14 nM

## H[Aib]QGTFTSDYSKYLDERAA[Phe(4-CH2NH2)]([AEEA-AEEA-γGlu-C20‑OH])DFVQWLLKT-NH2 [TP586]
[1]
  GLP1R EC50 human: 1.23 nM
[2]
  GCGR EC50 human: 4.95 nM

B4: TP596 (peptide)
peptide: H[Aib]QGTFLSDYSKYLDARAAK([AEEA-AEEA-γGlu-C18 diacid])DFVQWL[Met(O2)]DT-NH2
modifications: N-terminus assumed
SMILES: CC(C)C[C@H](NC(=O)[C@H](Cc1ccc(O)cc1)NC(=O)[C@H](CCCCN)NC(=O)[C@H](CO)NC(=O)[C@H](Cc1ccc(O)cc1)NC(=O)[C@H](CC(=O)O)NC(=O)[C@H](CO)NC(=O)[C@H](CC(C)C)NC(=O)[C@H](Cc1ccccc1)NC(=O)[C@@H](NC(=O)CNC(=O)[C@H](CCC(N)=O)NC(=O)C(C)(C)NC(=O)[C@@H](N)Cc1c[nH]cn1)[C@@H](C)O)C(=O)N[C@@H](CC(=O)O)C(=O)N[C@@H](C)C(=O)N[C@@H](CCCNC(=N)N)C(=O)N[C@@H](C)C(=O)N[C@@H](C)C(=O)N[C@@H](CCCCNC(=O)COCCOCCNC(=O)COCCOCCNC(=O)CC[C@H](NC(=O)CCCCCCCCCCCCCCCCC(=O)O)C(=O)O)C(=O)N[C@@H](CC(=O)O)C(=O)N[C@@H](Cc1ccccc1)C(=O)N[C@H](C(=O)N[C@@H](CCC(N)=O)C(=O)N[C@@H](Cc1c[nH]c2ccccc12)C(=O)N[C@@H](CC(C)C)C(=O)N[C@@H](CCS(C)(=O)=O)C(=O)N[C@@H](CC(=O)O)C(=O)N[C@H](C(N)=O)[C@@H](C)O)C(C)C
[1]
  GLP1R EC50 human: > 20 nM
[2]
  GCGR EC50 human: 0.35 nM

B5: TP599 (peptide)
peptide: H[Aib]QGTFTSDYSKYLDALAAK([AEEA-AEEA-γGlu-C18 diacid])DFVQWL[Met(O2)]DT-NH2
modifications: N-terminus assumed
SMILES: CC(C)C[C@H](NC(=O)[C@H](C)NC(=O)[C@H](CC(=O)O)NC(=O)[C@H](CC(C)C)NC(=O)[C@H](Cc1ccc(O)cc1)NC(=O)[C@H](CCCCN)NC(=O)[C@H](CO)NC(=O)[C@H](Cc1ccc(O)cc1)NC(=O)[C@H](CC(=O)O)NC(=O)[C@H](CO)NC(=O)[C@@H](NC(=O)[C@H](Cc1ccccc1)NC(=O)[C@@H](NC(=O)CNC(=O)[C@H](CCC(N)=O)NC(=O)C(C)(C)NC(=O)[C@@H](N)Cc1c[nH]cn1)[C@@H](C)O)[C@@H](C)O)C(=O)N[C@@H](C)C(=O)N[C@@H](C)C(=O)N[C@@H](CCCCNC(=O)COCCOCCNC(=O)COCCOCCNC(=O)CC[C@H](NC(=O)CCCCCCCCCCCCCCCCC(=O)O)C(=O)O)C(=O)N[C@@H](CC(=O)O)C(=O)N[C@@H](Cc1ccccc1)C(=O)N[C@H](C(=O)N[C@@H](CCC(N)=O)C(=O)N[C@@H](Cc1c[nH]c2ccccc12)C(=O)N[C@@H](CC(C)C)C(=O)N[C@@H](CCS(C)(=O)=O)C(=O)N[C@@H](CC(=O)O)C(=O)N[C@H](C(N)=O)[C@@H](C)O)C(C)C
[1]
  GLP1R EC50 human: 2.21 nM
[2]
  GCGR EC50 human: 3.47 nM

B6: TP595 (peptide)
peptide: H[Aib]QGTFFSDYSKYLDARAAK([AEEA-AEEA-γGlu-C18 diacid])DFVQWL[Met(O2)]DT-NH2
modifications: N-terminus assumed
SMILES: CC(C)C[C@H](NC(=O)[C@H](Cc1ccc(O)cc1)NC(=O)[C@H](CCCCN)NC(=O)[C@H](CO)NC(=O)[C@H](Cc1ccc(O)cc1)NC(=O)[C@H](CC(=O)O)NC(=O)[C@H](CO)NC(=O)[C@H](Cc1ccccc1)NC(=O)[C@H](Cc1ccccc1)NC(=O)[C@@H](NC(=O)CNC(=O)[C@H](CCC(N)=O)NC(=O)C(C)(C)NC(=O)[C@@H](N)Cc1c[nH]cn1)[C@@H](C)O)C(=O)N[C@@H](CC(=O)O)C(=O)N[C@@H](C)C(=O)N[C@@H](CCCNC(=N)N)C(=O)N[C@@H](C)C(=O)N[C@@H](C)C(=O)N[C@@H](CCCCNC(=O)COCCOCCNC(=O)COCCOCCNC(=O)CC[C@H](NC(=O)CCCCCCCCCCCCCCCCC(=O)O)C(=O)O)C(=O)N[C@@H](CC(=O)O)C(=O)N[C@@H](Cc1ccccc1)C(=O)N[C@H](C(=O)N[C@@H](CCC(N)=O)C(=O)N[C@@H](Cc1c[nH]c2ccccc12)C(=O)N[C@@H](CC(C)C)C(=O)N[C@@H](CCS(C)(=O)=O)C(=O)N[C@@H](CC(=O)O)C(=O)N[C@H](C(N)=O)[C@@H](C)O)C(C)C
[1]
  GLP1R EC50 human: > 20 nM
[2]
  GCGR EC50 human: 0.4 nM

B7: TP640 (peptide)
peptide: H[Aib]QGTFTSDYSKLLDARAAK([AEEA-AEEA-γGlu-C18 diacid])DFVQWL[Met(O2)][αMeD]T-NH2
modifications: N-terminus assumed
SMILES: CC(C)C[C@H](NC(=O)[C@H](CC(C)C)NC(=O)[C@H](CCCCN)NC(=O)[C@H](CO)NC(=O)[C@H](Cc1ccc(O)cc1)NC(=O)[C@H](CC(=O)O)NC(=O)[C@H](CO)NC(=O)[C@@H](NC(=O)[C@H](Cc1ccccc1)NC(=O)[C@@H](NC(=O)CNC(=O)[C@H](CCC(N)=O)NC(=O)C(C)(C)NC(=O)[C@@H](N)Cc1c[nH]cn1)[C@@H](C)O)[C@@H](C)O)C(=O)N[C@@H](CC(=O)O)C(=O)N[C@@H](C)C(=O)N[C@@H](CCCNC(=N)N)C(=O)N[C@@H](C)C(=O)N[C@@H](C)C(=O)N[C@@H](CCCCNC(=O)COCCOCCNC(=O)COCCOCCNC(=O)CC[C@H](NC(=O)CCCCCCCCCCCCCCCCC(=O)O)C(=O)O)C(=O)N[C@@H](CC(=O)O)C(=O)N[C@@H](Cc1ccccc1)C(=O)N[C@H](C(=O)N[C@@H](CCC(N)=O)C(=O)N[C@@H](Cc1c[nH]c2ccccc12)C(=O)N[C@@H](CC(C)C)C(=O)N[C@@H](CCS(C)(=O)=O)C(=O)N[C@@](C)(CC(=O)O)C(=O)N[C@H](C(N)=O)[C@@H](C)O)C(C)C
[1]
  GLP1R EC50 human: 0.84 nM
[2]
  GCGR EC50 human: 0.69 nM

B8: TP594 (peptide)
peptide: HXQGTFTSDYSKYLDARAAXXFVQWLXDT
modifications: Aib (U) at 2; K(PEG2PEG2γEC20-OH) at 20; αMD at 21; L-methionine sulphone (2) at 27; C-terminal amide
[1]
  GLP1R EC50 human: 2.6 nM
[2]
  GCGR EC50 human: 4.95 nM
